± gives the standard deviation of the averaged measurements.
Test: total protein half-life in vivo (active degradation + dilution); higher = more stable protein
[1] = E. coli NCM3722 delta-clpP delta-lon delta-hslV, growth: N-lim chemostat, doubling time 6 h
[2] = E. coli NCM3722 delta-clpP, growth: N-lim chemostat, doubling time 6 h
[3] = E. coli NCM3722 delta-lon, growth: N-lim chemostat, doubling time 6 h
[4] = E. coli NCM3722 delta-smpB, growth: N-lim chemostat, doubling time 6 h
[5] = wild type E. coli NCM3722, growth: C-lim chemostat, doubling time 3 h
[6] = wild type E. coli NCM3722, growth: C-lim chemostat, doubling time 6 h
[7] = wild type E. coli NCM3722, growth: C-lim chemostat, doubling time 12 h
[8] = wild type E. coli NCM3722, growth: N-lim chemostat, doubling time 12 h
[9] = wild type E. coli NCM3722, growth: P-lim chemostat, doubling time 6 h
[10] = wild type E. coli NCM3722, growth: P-lim chemostat, doubling time 12 h
[11] = E. coli NCM3722 delta-hslV, growth: N-lim chemostat, doubling time 6 h
[12] = wild type E. coli NCM3722, growth: N-lim chemostat, doubling time 6 h

## MQFNIPTLLTLFRVILIPFFVLVFYLPVTWSPFAAALIFCVAAVTDWFDGFLARRWNQSTRFGAFLDPVADKVLVAIAMVLVTEHYHSWWVTLPAATMIAREIIISALREWMAELGKRSSVAVSWIGKVKTTAQMVALAWLLWRPNIWVEYAGIALFFVAAVLTLWSMLQYLSAARADLLDQ [P0ABF8]
[1]
  total protein half-life in vivo: 7.82 h
[2]
  total protein half-life in vivo: 6.476 ± 0.013 h
[3]
  total protein half-life in vivo: 5.76 h
[4]
  total protein half-life in vivo: 5.9 h
[5]
  total protein half-life in vivo: 3.1 ± 0.097 h
[6]
  total protein half-life in vivo: 5.64 ± 0.51 h
[7]
  total protein half-life in vivo: 15.4 h
[8]
  total protein half-life in vivo: 9.62 ± 4.9 h
[9]
  total protein half-life in vivo: 6.75 ± 1.5 h
[10]
  total protein half-life in vivo: 12.1 ± 1.3 h

## MTIKNVICDIDGVLMHDNVAVPGAAEFLHGIMDKGLPLVLLTNYPSQTGQDLANRFATAGVDVPDSVFYTSAMATADFLRRQEGKKAYVVGEGALIHELYKAGFTITDVNPDFVIVGETRSYNWDMMHKAAYFVANGARFIATNPDTHGRGFYPACGALCAGIEKISGRKPFYVGKPSPWIIRAALNKMQAHSEETVIVGDNLRTDILAGFQAGLETILVLSGVSSLDDIDSMPFRPSWIYPSVAEIDVI [P0AF24]
[1]
  total protein half-life in vivo: 6.46 ± 0.48 h
[2]
  total protein half-life in vivo: 5.48 ± 0.16 h
[11]
  total protein half-life in vivo: 5.64 ± 0.15 h
[3]
  total protein half-life in vivo: 5.88 ± 0.64 h
[4]
  total protein half-life in vivo: 5.58 ± 0.17 h
[5]
  total protein half-life in vivo: 3.14 ± 0.041 h
[6]
  total protein half-life in vivo: 5.71 ± 0.07 h
[7]
  total protein half-life in vivo: 11.6 ± 1.2 h
[12]
  total protein half-life in vivo: 5.465 ± 0.045 h
[8]
  total protein half-life in vivo: 9.89 ± 0.17 h
[9]
  total protein half-life in vivo: 6 ± 0.44 h
[10]
  total protein half-life in vivo: 10.4 ± 2.1 h

## MIRFEHVSKAYLGGRQALQGVTFHMQPGEMAFLTGHSGAGKSTLLKLICGIERPSAGKIWFSGHDITRLKNREVPFLRRQIGMIFQDHHLLMDRTVYDNVAIPLIIAGASGDDIRRRVSAALDKVGLLDKAKNFPIQLSGGEQQRVGIARAVVNKPAVLLADEPTGNLDDALSEGILRLFEEFNRVGVTVLMATHDINLISRRSYRMLTLSDGHLHGGVGHE [P0A9R7]
[1]
  total protein half-life in vivo: 5.85 ± 0.08 h
[11]
  total protein half-life in vivo: 5.57 ± 0.067 h
[3]
  total protein half-life in vivo: 5.62 ± 0.4 h
[4]
  total protein half-life in vivo: 5.32 ± 0.056 h
[5]
  total protein half-life in vivo: 2.762 ± 0.02 h
[6]
  total protein half-life in vivo: 5.52 ± 0.12 h
[7]
  total protein half-life in vivo: 10.1 ± 0.31 h
[12]
  total protein half-life in vivo: 5.48 ± 0.17 h
[8]
  total protein half-life in vivo: 9.44 ± 1.1 h
[9]
  total protein half-life in vivo: 5.26 ± 0.17 h
[10]
  total protein half-life in vivo: 11.9 ± 2.3 h

## MLIIETLPLLRQQIRRLRMEGKRVALVPTMGNLHDGHMKLVDEAKARADVVVVSIFVNPMQFDRPEDLARYPRTLQEDCEKLNKRKVDLVFAPSVKEIYPNGTETHTYVDVPGLSTMLEGASRPGHFRGVSTIVSKLFNLVQPDIACFGEKDFQQLALIRKMVADMGFDIEIVGVPIMRAKDGLALSSRNGYLTAEQRKIAPGLYKVLSSIADKLQAGERDLDEIITIAGQELNEKGFRADDIQIRDADTLLEVSETSKRAVILVAAWLGDARLIDNKMVELA
[1]
  total protein half-life in vivo: 5.42 ± 0.33 h
[2]
  total protein half-life in vivo: 5.17 ± 0.93 h
[11]
  total protein half-life in vivo: 4.941 ± 0.045 h
[3]
  total protein half-life in vivo: 5.34 ± 0.1 h
[4]
  total protein half-life in vivo: 4.98 ± 0.26 h
[5]
  total protein half-life in vivo: 3.1 ± 0.28 h
[6]
  total protein half-life in vivo: 5.5 ± 0.056 h
[7]
  total protein half-life in vivo: 11.8 ± 2.4 h
[12]
  total protein half-life in vivo: 4.868 ± 0.016 h
[8]
  total protein half-life in vivo: 8.38 ± 0.16 h
[9]
  total protein half-life in vivo: 5.774 ± 0.017 h
[10]
  total protein half-life in vivo: 12.5 ± 0.45 h

## MRHSVLFATAFATLISTQTFAADLPGKGITVNPVQSTITEETFQTLLVSRALEKLGYTVNKPSEVDYNVGYTSLASGDATFTAVNWTPLHDNMYEAAGGDKKFYREGVFVNGAAQGYLIDKKTADQYKITNIAQLKDPKIAKLFDTNGDGKADLTGCNPGWGCEGAINHQLAAYELTNTVTHNQGNYAAMMADTISRYKEGKPVFYYTWTPYWVSNELKPGKDVVWLQVPFSALPGDKNADTKLPNGANYGFPVSTMHIVANKAWAEKNPAAAKLFAIMQLPVADINAQNAIMHDGKASEGDIQGHVDGWIKAHQQQFDGWVNEALAAQK [P0AFM2]
[2]
  total protein half-life in vivo: 4.96 ± 0.067 h
[11]
  total protein half-life in vivo: 6.88 ± 1.4 h
[3]
  total protein half-life in vivo: 5.41 h
[4]
  total protein half-life in vivo: 5.41 ± 0.17 h
[5]
  total protein half-life in vivo: 3.5 ± 0.29 h
[6]
  total protein half-life in vivo: 6.36 h
[7]
  total protein half-life in vivo: 5.21 h
[8]
  total protein half-life in vivo: 11.2 h
[9]
  total protein half-life in vivo: 6.38 h
[10]
  total protein half-life in vivo: 13.1 h

## MREAFICDGIRTPIGRYGGALSSVRADDLAAIPLRELLVRNPRLDAECIDDVILGCANQAGEDNRNVARMATLLAGLPQSVSGTTINRLCGSGLDALGFAARAIKAGDGDLLIAGGVESMSRAPFVMGKAASAFSRQAEMFDTTIGWRFVNPLMAQQFGTDSMPETAENVAELLKISREDQDSFALRSQQRTAKAQSSGILAEEIVPVVLKNKKGVVTEIQHDEHLRPETTLEQLRGLKAPFRANGVITAGNASGVNDGAAALIIASEQMAAAQGLTPRARIVAMATAGVEPRLMGLGPVPATRRVLERAGLSIHDMDVIELNEAFAAQALGVLRELGLPDDAPHVNPNGGAIALGHPLGMSGARLALAASHELHRRNGRYALCTMCIGVGQGIAMILERV [P0C7L2]
[1]
  total protein half-life in vivo: 3.42 h
[3]
  total protein half-life in vivo: 2.17 h
[5]
  total protein half-life in vivo: 2.77 ± 0.17 h
[6]
  total protein half-life in vivo: 3.37 ± 0.079 h
[7]
  total protein half-life in vivo: 4.76 ± 0.58 h
[9]
  total protein half-life in vivo: 4.99 ± 1.1 h
[10]
  total protein half-life in vivo: 8.63 ± 0.14 h

## MYQPDFPPVPFRSGLYPVVDSVQWIERLLDAGVRTLQLRIKDRRDEEVEADVVAAIALGRRYNARLFINDYWRLAIKHQAYGVHLGQEDLQATDLNAIRAAGLRLGVSTHDDMEIDVALAARPSYIALGHVFPTQTKQMPSAPQGLEQLARHVERLADYPTVAIGGISLARAPAVIATGVGSIAVVSAITQAADWRLATAQLLEIAGVGDE
[1]
  total protein half-life in vivo: 6.1 ± 1.1 h
[2]
  total protein half-life in vivo: 3.05 ± 0.11 h
[11]
  total protein half-life in vivo: 3.34 ± 0.23 h
[3]
  total protein half-life in vivo: 4.173 ± 0.028 h
[4]
  total protein half-life in vivo: 2.77 ± 0.045 h
[5]
  total protein half-life in vivo: 2.31 ± 0.52 h
[6]
  total protein half-life in vivo: 4.76 ± 0.58 h
[7]
  total protein half-life in vivo: 6.78 ± 0.74 h
[12]
  total protein half-life in vivo: 3.01 ± 0.54 h
[8]
  total protein half-life in vivo: 5.18 ± 0.5 h
[9]
  total protein half-life in vivo: 2.01 ± 0.57 h
[10]
  total protein half-life in vivo: 3.48 ± 0.66 h

## MTFSLFGDKFTRHSGITLLMEDLNDGLRTPGAIMLGGGNPAQIPEMQDYFQTLLTDMLESGKATDALCNYDGPQGKTELLTLLAGMLREKLGWDIEPQNIALTNGSQSAFFYLFNLFAGRRADGRVKKVLFPLAPEYIGYADAGLEEDLFVSARPNIELLPEGQFKYHVDFEHLHIGEETGMICVSRPTNPTGNVITDEELLKLDALANQHGIPLVIDNAYGVPFPGIIFSEARPLWNPNIVLCMSLSKLGLPGSRCGIIIANEKIITAITNMNGIISLAPGGIGPAMMCEMIKRNDLLRLSETVIKPFYYQRVQETIAIIRRYLPENRCLIHKPEGAIFLWLWFKDLPITTKQLYQRLKARGVLMVPGHNFFPGLDKPWPHTHQCMRMNYVPEPEKIEAGVKILAEEIERAWAESH
[1]
  total protein half-life in vivo: 3.05 ± 0.33 h
[2]
  total protein half-life in vivo: 2.32 ± 0.096 h
[11]
  total protein half-life in vivo: 2.53 ± 0.12 h
[3]
  total protein half-life in vivo: 2.72 ± 0.059 h
[4]
  total protein half-life in vivo: 2.76 ± 0.11 h
[6]
  total protein half-life in vivo: 4.26 ± 0.073 h
[7]
  total protein half-life in vivo: 7.25 ± 0.17 h
[12]
  total protein half-life in vivo: 2.46 ± 0.28 h
[8]
  total protein half-life in vivo: 3.33 ± 0.17 h
[9]
  total protein half-life in vivo: 4.994 ± 0.0076 h
[10]
  total protein half-life in vivo: 9.24 ± 0.47 h

Reference: the supplement of paper PMC11246515
